Laboratory results taken from US20140242084A1 (published 2014).

T1: junction protein JAM-C (human, UniProt Q9BX67 32-310)
T1 construct: whole, on cells
T1 sequence (looked up): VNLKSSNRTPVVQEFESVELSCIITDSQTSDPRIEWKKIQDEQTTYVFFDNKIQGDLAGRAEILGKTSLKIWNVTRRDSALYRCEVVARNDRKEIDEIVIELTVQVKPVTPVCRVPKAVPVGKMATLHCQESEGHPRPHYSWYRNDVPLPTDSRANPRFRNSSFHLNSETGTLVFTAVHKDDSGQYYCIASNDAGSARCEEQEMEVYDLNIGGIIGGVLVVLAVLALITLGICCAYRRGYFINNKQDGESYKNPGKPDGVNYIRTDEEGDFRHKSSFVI

T2: VE-cadherin (SPR analyte) (UniProt P33151 48-599, limits assumed)
T2 sequence (looked up): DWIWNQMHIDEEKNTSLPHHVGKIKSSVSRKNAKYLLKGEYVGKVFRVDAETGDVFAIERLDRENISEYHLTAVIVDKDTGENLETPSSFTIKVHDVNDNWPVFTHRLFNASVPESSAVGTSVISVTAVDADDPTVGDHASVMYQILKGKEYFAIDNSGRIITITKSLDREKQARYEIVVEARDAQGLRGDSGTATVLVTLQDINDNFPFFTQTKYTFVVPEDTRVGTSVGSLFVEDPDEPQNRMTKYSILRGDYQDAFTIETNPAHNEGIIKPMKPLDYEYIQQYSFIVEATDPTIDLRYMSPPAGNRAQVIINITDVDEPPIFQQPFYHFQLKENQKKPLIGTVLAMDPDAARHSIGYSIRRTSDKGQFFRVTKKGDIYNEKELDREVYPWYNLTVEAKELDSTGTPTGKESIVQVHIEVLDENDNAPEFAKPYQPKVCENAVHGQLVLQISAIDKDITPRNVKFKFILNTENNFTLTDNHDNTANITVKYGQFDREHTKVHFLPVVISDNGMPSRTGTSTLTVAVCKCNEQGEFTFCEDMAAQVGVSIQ

T3: VE-cadherin of primary human microvascular endothelial cells (HMVECs) (human, UniProt P33151 48-784)
T3 construct: whole, on cells; Endogenous protein, detected by in situ PLA and by co-immunoprecipitation
T3 sequence (looked up): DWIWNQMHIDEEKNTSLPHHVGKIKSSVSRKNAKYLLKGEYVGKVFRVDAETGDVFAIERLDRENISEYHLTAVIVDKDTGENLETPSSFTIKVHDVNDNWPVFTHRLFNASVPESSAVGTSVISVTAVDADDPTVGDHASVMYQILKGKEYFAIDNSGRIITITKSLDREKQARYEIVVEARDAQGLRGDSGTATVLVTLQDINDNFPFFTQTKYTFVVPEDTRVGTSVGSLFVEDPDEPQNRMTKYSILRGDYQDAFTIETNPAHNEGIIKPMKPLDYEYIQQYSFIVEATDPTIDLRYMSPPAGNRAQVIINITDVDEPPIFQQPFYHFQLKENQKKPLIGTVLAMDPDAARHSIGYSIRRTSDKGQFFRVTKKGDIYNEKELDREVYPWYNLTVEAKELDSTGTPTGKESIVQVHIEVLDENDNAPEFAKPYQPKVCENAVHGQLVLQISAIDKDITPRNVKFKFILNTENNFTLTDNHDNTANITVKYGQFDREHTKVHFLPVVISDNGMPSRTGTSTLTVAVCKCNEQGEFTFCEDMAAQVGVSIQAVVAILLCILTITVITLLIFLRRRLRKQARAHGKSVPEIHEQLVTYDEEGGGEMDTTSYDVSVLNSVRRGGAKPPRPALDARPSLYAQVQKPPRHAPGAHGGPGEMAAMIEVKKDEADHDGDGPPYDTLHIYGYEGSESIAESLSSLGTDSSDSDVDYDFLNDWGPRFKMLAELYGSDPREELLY

T4: occludin (UniProt Q16625 1-522, limits assumed)
T4 sequence (looked up): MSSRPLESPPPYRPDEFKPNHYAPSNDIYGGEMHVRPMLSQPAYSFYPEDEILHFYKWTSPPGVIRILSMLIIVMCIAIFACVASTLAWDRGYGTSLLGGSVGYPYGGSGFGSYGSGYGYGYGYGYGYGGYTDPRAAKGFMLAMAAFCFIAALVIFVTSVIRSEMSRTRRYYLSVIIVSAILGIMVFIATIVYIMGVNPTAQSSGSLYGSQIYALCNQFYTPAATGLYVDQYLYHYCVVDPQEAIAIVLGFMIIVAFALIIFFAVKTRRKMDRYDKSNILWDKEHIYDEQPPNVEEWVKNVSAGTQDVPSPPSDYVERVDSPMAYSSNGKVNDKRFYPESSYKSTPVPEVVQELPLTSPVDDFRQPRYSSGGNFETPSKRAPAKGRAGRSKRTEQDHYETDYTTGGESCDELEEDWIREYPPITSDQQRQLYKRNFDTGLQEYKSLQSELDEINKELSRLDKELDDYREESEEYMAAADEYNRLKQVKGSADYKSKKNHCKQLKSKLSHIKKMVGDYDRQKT

B1: recombinant human cANGPTL4 (C-terminal region of angiopoietin-like 4) (ligand, UniProt Q9BY76 186-406, looked up)
chain: RDCQELFQVGERQSGLFEIQPQGSPPFLVNCKMTSDGGWTVIQRRHDGSVDFNRPWEAYKAGFGDPHGEFWLGLEKVHSITGDRNSRLAVQLRDWDGNAELLQFSVHLGGEDTAYSLQLTAPVAGQLGATTVPPSGLSVPFSTWDQDHDLRRDKNCAKSLSGGWWFGTCSHSNLNGQYFRSIPQQRQKLKKGIFWKTWRGRYYPLQATTMLIQPMAAEAAS
notes: domain: c terminal region; the tag is not specified; also called rh-cANGPTL4; rhcANGPTL4
B2: claudin-5 of primary human microvascular endothelial cells (HMVECs) (other, UniProt O00501 1-218, looked up)
chain: MGSAALEILGLVLCLVGWGGLILACGLPMWQVTAFLDHNIVTAQTTWKGLWMSCVVQSTGHMQCKVYDSVLALSTEVQAARALTVSAVLLAFVALFVTLAGAQCTTCVAPGPAKARVALTGGVLYLFCGLLALVPLCWFANIVVREFYDPSVPVSQKYELGAALYIGWAATALLMVGGCLLCCGAWVCTGRPDLSFPVKYSAPRRPTATGDYDKKNYV
notes: whole, on cells; Endogenous protein, detected by in situ PLA and by co-immunoprecipitation
B3: junctional adhesion molecule A (JAM-A) (other, UniProt Q9Y624 28-238, looked up)
chain: SVTVHSSEPEVRIPENNPVKLSCAYSGFSSPRVEWKFDQGDTTRLVCYNNKITASYEDRVTFLPTGITFKSVTREDTGTYTCMVSEEGGNSYGEVKVKLIVLVPPSKPTVNIPSSATIGNRAVLTCSEQDGSPPSEYTWFKDGIVMPTNPKSTRAFSNSSYVLNPTTGELVFDPLSASDTGEYSCEARNGYGTPMTSNAVRMEAVERNVGV
B4: VE-cadherin EC3 (other, UniProt P33151 259-372, looked up)
chain: TQTKYTFVVPEDTRVGTSVGSLFVEDPDEPQNRMTKYSILRGDYQDAFTIETNPAHNEGIIKPMKPLDYEYIQQYSFIVEATDPTIDLRYMSPPAGNRAQVIINITDVDEPPIF
notes: domain: EC3

Tests used:
[1] = target: T1, junction protein JAM-C; assay: co-immunoprecipitation with anti-cANGPTL4 from lysates of rh-cANGPTL4-treated HMVECs (FIG. 5B)
[2] = target: T5, integrin β3 of HMVECs (human, UniProt P05106 27-788); assay: as above
T5 construct: whole, on cells
T5 sequence (P05106 27-788): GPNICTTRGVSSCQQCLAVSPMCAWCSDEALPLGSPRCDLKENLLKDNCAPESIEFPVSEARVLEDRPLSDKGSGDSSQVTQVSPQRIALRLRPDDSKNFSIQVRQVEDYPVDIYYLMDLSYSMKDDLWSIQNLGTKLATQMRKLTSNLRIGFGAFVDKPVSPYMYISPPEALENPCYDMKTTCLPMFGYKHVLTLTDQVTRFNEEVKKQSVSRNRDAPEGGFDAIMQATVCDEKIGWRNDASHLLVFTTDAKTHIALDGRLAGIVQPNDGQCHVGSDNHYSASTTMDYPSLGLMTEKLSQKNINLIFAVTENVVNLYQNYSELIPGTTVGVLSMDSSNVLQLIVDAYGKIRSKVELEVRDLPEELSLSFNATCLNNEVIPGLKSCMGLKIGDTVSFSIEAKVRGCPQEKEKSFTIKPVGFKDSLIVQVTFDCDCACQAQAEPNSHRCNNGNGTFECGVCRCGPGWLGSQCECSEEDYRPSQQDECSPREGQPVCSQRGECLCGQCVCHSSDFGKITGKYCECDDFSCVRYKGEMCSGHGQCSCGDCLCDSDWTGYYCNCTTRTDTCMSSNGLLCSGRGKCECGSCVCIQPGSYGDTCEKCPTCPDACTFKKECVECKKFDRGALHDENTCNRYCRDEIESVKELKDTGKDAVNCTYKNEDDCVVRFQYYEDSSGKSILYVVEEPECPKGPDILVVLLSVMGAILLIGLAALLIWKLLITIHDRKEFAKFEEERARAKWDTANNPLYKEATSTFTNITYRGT

[3] = target: T6, Tie1 (human, UniProt P35590 22-1138); assay: as above
T6 construct: whole, on cells
T6 sequence (P35590 22-1138): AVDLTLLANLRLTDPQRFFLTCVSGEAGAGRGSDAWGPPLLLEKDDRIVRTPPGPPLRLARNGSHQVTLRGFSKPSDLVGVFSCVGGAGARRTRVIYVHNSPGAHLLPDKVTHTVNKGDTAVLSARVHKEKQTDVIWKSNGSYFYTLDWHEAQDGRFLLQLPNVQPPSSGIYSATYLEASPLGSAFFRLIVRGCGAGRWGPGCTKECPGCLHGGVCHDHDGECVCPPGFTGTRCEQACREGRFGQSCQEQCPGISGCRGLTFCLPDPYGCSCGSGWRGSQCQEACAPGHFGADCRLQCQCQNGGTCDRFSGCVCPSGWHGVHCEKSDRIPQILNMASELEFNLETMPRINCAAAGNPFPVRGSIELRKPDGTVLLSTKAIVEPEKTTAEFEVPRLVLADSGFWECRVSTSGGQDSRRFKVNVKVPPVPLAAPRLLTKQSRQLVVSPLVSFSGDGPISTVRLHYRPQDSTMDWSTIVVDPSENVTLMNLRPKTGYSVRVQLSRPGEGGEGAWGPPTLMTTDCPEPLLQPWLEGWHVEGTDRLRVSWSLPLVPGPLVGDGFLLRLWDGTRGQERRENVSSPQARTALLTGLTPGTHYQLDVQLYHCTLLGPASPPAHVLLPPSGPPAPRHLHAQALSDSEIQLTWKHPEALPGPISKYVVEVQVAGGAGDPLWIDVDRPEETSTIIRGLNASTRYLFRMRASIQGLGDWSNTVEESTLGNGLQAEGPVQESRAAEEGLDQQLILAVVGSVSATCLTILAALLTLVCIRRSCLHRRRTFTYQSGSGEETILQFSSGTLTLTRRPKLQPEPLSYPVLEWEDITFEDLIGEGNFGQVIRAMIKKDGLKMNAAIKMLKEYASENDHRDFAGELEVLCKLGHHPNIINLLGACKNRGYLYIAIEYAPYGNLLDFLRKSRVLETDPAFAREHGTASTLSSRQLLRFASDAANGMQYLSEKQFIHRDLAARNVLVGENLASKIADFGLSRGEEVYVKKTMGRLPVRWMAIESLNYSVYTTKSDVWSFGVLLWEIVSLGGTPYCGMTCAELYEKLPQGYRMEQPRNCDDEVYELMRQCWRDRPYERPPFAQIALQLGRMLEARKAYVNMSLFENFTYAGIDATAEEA

[4] = target: T7, Tie2 (human, UniProt Q02763 23-1124); assay: as above
T7 construct: whole, on cells
T7 sequence (Q02763 23-1124): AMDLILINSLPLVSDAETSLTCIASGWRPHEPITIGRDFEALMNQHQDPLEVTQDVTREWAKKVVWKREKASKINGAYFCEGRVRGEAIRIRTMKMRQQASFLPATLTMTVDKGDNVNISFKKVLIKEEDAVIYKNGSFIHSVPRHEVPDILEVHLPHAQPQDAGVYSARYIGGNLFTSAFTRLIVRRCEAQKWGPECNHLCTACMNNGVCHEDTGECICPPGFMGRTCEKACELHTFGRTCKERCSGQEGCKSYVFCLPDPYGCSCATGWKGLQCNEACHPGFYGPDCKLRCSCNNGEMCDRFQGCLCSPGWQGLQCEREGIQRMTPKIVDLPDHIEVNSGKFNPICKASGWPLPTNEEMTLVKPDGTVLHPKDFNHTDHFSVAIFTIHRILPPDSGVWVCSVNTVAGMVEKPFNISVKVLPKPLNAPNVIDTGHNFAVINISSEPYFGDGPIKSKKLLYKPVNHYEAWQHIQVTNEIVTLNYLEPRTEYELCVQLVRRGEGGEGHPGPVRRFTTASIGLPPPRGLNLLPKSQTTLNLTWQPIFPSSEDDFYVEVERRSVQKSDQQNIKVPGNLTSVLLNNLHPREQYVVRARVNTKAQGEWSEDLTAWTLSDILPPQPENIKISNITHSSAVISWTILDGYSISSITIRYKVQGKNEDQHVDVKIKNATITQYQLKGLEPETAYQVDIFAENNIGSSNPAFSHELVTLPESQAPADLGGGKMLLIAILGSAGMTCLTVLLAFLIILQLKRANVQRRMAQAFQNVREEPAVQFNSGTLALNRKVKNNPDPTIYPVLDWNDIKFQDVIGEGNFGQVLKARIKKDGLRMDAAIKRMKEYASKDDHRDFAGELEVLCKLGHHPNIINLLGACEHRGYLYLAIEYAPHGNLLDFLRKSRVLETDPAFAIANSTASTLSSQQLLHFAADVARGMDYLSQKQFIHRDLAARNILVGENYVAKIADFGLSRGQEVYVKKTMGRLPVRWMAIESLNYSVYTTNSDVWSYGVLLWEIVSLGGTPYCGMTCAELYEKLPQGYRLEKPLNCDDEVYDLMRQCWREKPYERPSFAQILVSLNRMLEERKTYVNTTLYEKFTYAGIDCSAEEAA

[5] = target: T2, VE-cadherin (SPR analyte); assay: SPR (BIAcore 2000), immobilised cANGPTL4, global fit
Experimental: (§1) SPR was carried out as previously described17,18 using a BIAcore 2000 system (BIAcore, Uppsala, Sweden). Six concentrations (0.16, 0.32, 0.63, 1.25, 2.50 and 5.0 μM) of recombinant integrin β1, first extracellular domain of VE-cadherin (ECD1), extracellular repeat 1 domain of VE-cadherin (EC1), occludin or JAM-A were used. Integrin was expressed in Drosophila S2 cells17 and various extracellular domains of VE-cadherin and claudin-5 purchased from Abnova. Global fitting of the SPR data was performed as previously described to determine the KD. Preinjection or preincubation with the indicated antibodies or preimmune IgG was performed to determine specific interactions. Each sensorgram was corrected by subtracting a sensorgram obtained from a reference flow cell with no immobilized protein. […] Values are mean±S.D. (n=3)

[6] = target: recombinant integrin α5β1 (UniProt P08648); assay: as above
[7] = target: claudin-5 (SPR analyte) (UniProt O00501); assay: as above
[8] = target: B2; assay: kinetic PLA in HMVECs in the presence of anti-integrin antibody, against the zero time point (FIG. 4C)
Experimental: (§2) (A, B and D, E) Immunofluorescence staining for ZO-1 (A, D) and transendothelial electrical resistance (TER) measurement (B, E) in confluent HMVEC monolayer. […] Treatments were for 3 or 6 h. HMVECs were counterstained with DAPI (blue) for nuclei and phalloidin (red) for actin stress fibers. Scale bar: 40 μm. White arrows indicate endothelial junction lesions. Data (means±S.D.) from 3 independent experiments. *, P<0.05; **, P<0.01. […] Values (means±S.D.) represent mean fold change in the number of interactions compared to the zero time point, as determined from n=3 independent experiments (˜600 HMVECs) using BlobFinder.

[9] = target: T3, VE-cadherin of primary human …; assay: as above
Experimental: as §2

[10] = target: T4, occludin; assay: SPR, immobilised cANGPTL4
Experimental: as §1

[11] = target: integrin β3 (control of the interaction analysis in paragraph 126) (UniProt P05106 27-718, limits assumed); assay: SPR control (sentence also cites references 16, 17)
Sequence of integrin β3 (control of the interaction analysis in paragraph 126) (P05106 27-718 limits assumed): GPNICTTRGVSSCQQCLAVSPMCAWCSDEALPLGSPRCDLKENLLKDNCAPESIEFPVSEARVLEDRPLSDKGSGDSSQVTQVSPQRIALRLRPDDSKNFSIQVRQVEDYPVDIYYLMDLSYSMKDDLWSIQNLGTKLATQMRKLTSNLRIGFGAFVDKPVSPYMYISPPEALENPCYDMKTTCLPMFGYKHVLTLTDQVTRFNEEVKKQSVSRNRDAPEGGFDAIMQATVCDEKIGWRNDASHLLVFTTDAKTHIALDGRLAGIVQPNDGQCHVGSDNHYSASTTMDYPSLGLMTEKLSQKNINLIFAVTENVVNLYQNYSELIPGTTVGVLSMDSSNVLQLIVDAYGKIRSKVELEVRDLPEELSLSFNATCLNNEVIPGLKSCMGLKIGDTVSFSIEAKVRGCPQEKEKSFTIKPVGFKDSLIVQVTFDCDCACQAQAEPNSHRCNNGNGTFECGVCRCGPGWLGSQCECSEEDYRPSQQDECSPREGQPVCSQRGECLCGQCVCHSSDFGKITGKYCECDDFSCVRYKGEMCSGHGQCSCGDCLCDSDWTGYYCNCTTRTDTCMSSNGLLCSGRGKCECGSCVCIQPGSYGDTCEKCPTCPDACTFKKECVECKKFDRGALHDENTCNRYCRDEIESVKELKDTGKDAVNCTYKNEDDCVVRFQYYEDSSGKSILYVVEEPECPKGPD

[12] = target: T8, integrin α5β1 of primary human microvascular endothelial cells (HMVECs) (human, UniProt P08648 42-1049; P05556 21-798); assay: in situ proximity ligation assay on ECs, 250 cells
T8 construct: whole, on cells; Endogenous protein, detected by in situ PLA and by co-immunoprecipitation from HMVEC lysates

[13] = target: B2; assay: in situ proximity ligation assay on ECs, 250 cells
[14] = target: T3, VE-cadherin of primary human …; assay: in situ proximity ligation assay on ECs, 250 cells
[15] = target: B1; assay: figure legend: kinetic PLA and co-immunoprecipitation in HMVECs
Experimental: Values (means±S.D.) represent mean fold change in the number of interactions compared to the zero time point, as determined from n=3 independent experiments (600 HMVECs) using BlobFinder. […] Protein lysates were collected every 10 minutes (0-180 minutes). Values below each band represent the mean fold change in protein expression level compared with the cognate zero time point (n=3). *, P<0.05; **, P<0.01.

[16] = target: B1; assay: SPR, immobilised cANGPTL4
Experimental: as §1

[17] = target: B1; assay: SPR, immobilised cANGPTL4 (FIG. 2B)
Experimental: as §1

B1
binding result [1]: no binding | binding result [2]: no binding | binding result [3]: no binding | binding result [4]: no binding | Kd [5]: 112 nM | Kd [6]: 12.6 nM | Kd [7]: 58.7 nM | mean fold change in the interactions [8]: 0.4 fold | mean fold change in the interactions [9]: 0.4 fold | binding result [10]: no binding (tested: 0.16-5.0 µM) | binding result [11]: no binding | PLA spots/cell [12]: 22.5 PLA spots/cell | PLA spots/cell [13]: 12.3 PLA spots/cell | PLA spots/cell [14]: 16.4 PLA spots/cell

B2
binding result [15]: binds

B3
binding result [16]: no binding (tested: 0.16-5.0 µM)

B4
binding result [17]: no binding
